Results: patent US12578329B2, “Reagent kit containing polypeptide for use in detection of intermolecular interactions” (SHIMADZU CORPORATION, priority 2021, dated 2026)
Entries after “also recorded” stand apart in the source; their conditions may differ.

Experiments:
[1] = Emission activity of divided enzyme (Escherichia coli lysates, single or mixed); format: biochemical; details: Experiment 11-2, coelenterazine 5 μM, Enspire multi-mode plate reader
Text: picALuc30 was divided to prepare plasmids (pET32 vectors) for expression of polypeptides from position 4 to 22, from position 23 to 120, from position 4 to 47, from position 48 to 120, from position 4 to 77, from position 80 to 120, from position 4 to 90, and from position 91 to 120 of the amino acid sequence in SEQ ID NO: 51. In the same manner as in Experiment 10, the plasmid was introduced into Escherichia coli SHuffle T7 Express lysY, and from the cultured bacterial cells, a lysate was obtained. To 100 μL of a single lysate or a mixture of lysates as specified in FIG. 25, coelenterazine was added as a substrate at a final concentration of 5 μM, followed by measuring the emission value by using an Infinite (registered trademark) 200 PRO plate reader (TECAN). Because the lysate contained luciferase fragments at high concentrations, it was expected that when fragment-containing lysates were mixed, two types of fragments were highly likely to encounter each other and these two fragments could form the original luciferase structure.
picALuc30 was divided to further prepare plasmids (pET32 vectors) for expression of polypeptides from position 4 to 58, from position 4 to 64, from position 4 to 72, from position 65 to 120, from position 73 to 120, and from position 104 to 120 of the amino acid sequence in SEQ ID NO: 51. In Experiment 11-2, emission values were measured in the same manner as in Experiment 11-1 except that an Enspire multi-mode plate reader (PerkinElmer™) was used for emission value detection.

[2] = Emission value of secretion-expressed luciferase in COS-7 culture medium, coelenterazine substrate; format: biochemical; details: for emission values (rank order): Experiment 5
Description: (§1) • (1) COS-7 cells derived from the kidney of African green monkey were inoculated in a 24-well dish, and on the next day, subconfluency was attained. • (2) 25 μL of Opti-MEM (Thermo Fisher Scientific™), 400 ng (2 μL) of the plasmid, and 1 μL of P3000 (Invitrogen™, Waltham, MA) were mixed. • (3) 25 μL of Opti-MEM and 1 μL of lipofectoamine 3000 (Invitrogen™) were mixed. • (4) (2) and (3) were mixed together, followed by incubation at room temperature for 5 minutes. • (5) The mixture was added to the medium of (1). • (6) 500 μL of Dulbecco's modified Eagle's medium was added, followed by culturing the cells at 37° C. for 1 day and then collecting the medium. The medium contained secretion-expressed luciferase. • (7) To 100 μL of the medium, coelenterazine was added as a substrate at a final concentration of 5 μM, followed by measuring the emission value by using Enspire multi-mode plate reader (PerkinElmer™, Waltham, MA).
By the same manner as in Experiment 2, the emission value was measured.
(§2) The emission value was measured in the same manner as in Experiment 2 except that the final concentration of coelenterazine was changed to 0.5 μM. […] The emission value was measured in the same manner as in Experiment 2 except that the final concentration of coelenterazine was changed to 5 μM.

[3] = Emission value of secretion-expressed luciferase in COS-7 culture medium, furimazine substrate; format: biochemical; details: Experiment 5; furimazine in the concentration recommended by the manufacturer
Description: as §1
The emission value was measured in the same manner as in Experiment 2 except that furimazine, which was available from Promega™ as a NanoLuc® substrate, was used as a substrate in the concentration recommended by the manufacturer.

[4] = GLuc: when secretion expressed from cells; cited from earlier work
[5] = Emission value of secretion-expressed luciferase in COS-7 culture medium, coelenterazine h substrate; format: biochemical; details: Experiment 5
Description: as §1
as §2, with “that coelenterazine h was used as a substrate in a” for “that the”, “of 5” for “of coelenterazine was changed to 0.5”, “of 25” for “of coelenterazine was changed to 5”

[6] = Measurement of specific activity (enzyme concentrations adjusted by Western blot signal); format: biochemical
Description: The specific activities of NanoLuc®, ALuc30 wt, and picALuc30 were measured, with their enzyme concentrations adjusted based on the Western blot signal intensity obtained in Experiment 6.

[7] = Stability of protein terminus: Western blot detection of Flag-tag and His-tag in culture supernatant; details: secretion-expressed luciferase in COS-7 culture supernatant; Western blotting
Text: In the same manner as in Experiment 2, the plasmid was transfected into COS-7 cells and culture supernatant was collected. Flag-tag added to the N terminus of each secretion-expressed luciferase and His-tag added to the C terminus thereof were detected by Western blotting (SDS-PAGE, Mini-PROTEAN TGX Gel StainFree 4-15% (Bio-Rad™, Hercules, CA)) (FIG. 17). The antibodies used were Anti 6×Histidine, Monoclonal Antibody (9C11), Peroxidase Conjugated (manufactured by FUJIFILM Wako Pure Chemical Corporation, 1:1000) and Monoclonal ANTI-FLAG (R) M2-Peroxidase (HRP) antibody produced in mouse, clone M2 (manufactured by Sigma-Aldrich™, St. Louis, MO, 1/1000), respectively, and detection was performed with Amesham Imager 680 (Cytiva™, Marlborough, MA).

[8] = Experiment 2, coelenterazine 5 μM, medium of transfected COS-7 cells

B1: position 4 to 58 and position 23 to 120: combination of polypeptides of these positions of SEQ ID NO: 51 (SEQ ID NOs: 78 and 81) (protein)
chain 1: GKKLPLEVLKELEANAQKAGCTRGCLICLSHIKCTAKMKKWLPGRCESWEGDKET
chain 2: GCTRGCLICLSHIKCTAKMKKWLPGRCESWEGDKETGQGGIGEAIVDIPEIPGFKELAPMEQFIAQVDLCADCTTGCLKGLANVKCSALLKKWLPSRC
modifications: part of picALuc30
With B1 the emission value [1] was “high emission value”.

B2: position 4 to 72 and position 23 to 120: combination of polypeptides of these positions of SEQ ID NO: 51 (SEQ ID NOs: 80 and 81) (protein)
chain 1: GKKLPLEVLKELEANAQKAGCTRGCLICLSHIKCTAKMKKWLPGRCESWEGDKETGQGGIGEAIVDIPE
chain 2: B1 chain 2
modifications: part of picALuc30
In the case of B2, the emission value [1] is reported as “high emission value”.

B3: position 4 to 72 and position 73 to 120: combination of polypeptides of these positions of SEQ ID NO: 51 (SEQ ID NOs: 80 and 84) (protein)
chain 1: B2 chain 1
chain 2: IPGFKELAPMEQFIAQVDLCADCTTGCLKGLANVKCSALLKKWLPSRC
modifications: part of picALuc30
In the case of B3, the emission value [1] is reported as “high emission value”.

B4: position 4 to 72 and position 104 to 120: combination of polypeptides of these positions of SEQ ID NO: 51 (SEQ ID NOs: 80 and 85) (protein)
chain 1: B2 chain 1
chain 2: ANVKCSALLKKWLPSRC
modifications: part of picALuc30
With B4 the emission value [1] was “high emission value”.

B5: ALuc30Δloop2N1: SEQ ID NO: 54; ALuc30 wt with N terminus (1 to 49) and loop 2 (122 to 128) deleted, Gly-Ser inserted; 14 kDa (protein)
chain: RGRRGKLPGKKLPLEVLKELEANAQKAGCTRGCLICLSHIKCTAKMKKWLPGRCESWEGDKETGQGGIGEAIVGSFKELAPMEQFIAQVDLCADCTTGCLKGLANVKCSALLKKWLPSRCAGFADKIQAQVDTIKGAGGS
modifications: ALuc30_del_loop2N1
notes: ALuc30 wt with N terminus (1 to 49) and loop 2 (122 to 128) deleted, Gly-Ser inserted; 14 kDa
In the case of B5, the emission value ([2]; Experiment 4, same manner as Experiment 2 (coelenterazine 5 μM)) is reported as “about half the emission value of ALuc30ΔN1”.

B6: picALuc16: SEQ ID NO: 52; ALuc16 with deletion of N terminus and C terminus, corresponding to picALuc30 (protein)
chain: KLPGKKLPLEVLKELEANAQKAGCTRGCLICLSHIKCTAKMKKWLPGRCESWEGDKETGQGGIGEAIVDIPEIPGFKDLEPMEQFIAQVDLCVDCTTGCLKGLANVKCSDLLKKWLPSRCAT
modifications: picALuc16
notes: ALuc16 with deletion of N terminus and C terminus, corresponding to picALuc30
In the case of B6, the emission value [2, 8] is reported as “sufficiently high”.

B7: NanoLuc®: known luciferase, about 19 kDa; SEQ ID NO: 73 (protein)
chain: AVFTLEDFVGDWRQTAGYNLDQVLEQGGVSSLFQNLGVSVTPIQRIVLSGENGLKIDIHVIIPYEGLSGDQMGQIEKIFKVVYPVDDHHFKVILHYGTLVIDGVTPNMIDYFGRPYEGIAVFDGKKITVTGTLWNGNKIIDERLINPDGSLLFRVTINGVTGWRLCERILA
modifications: oplophorus gracilirostris
For B7, the emission value [3] was “high emission values; also recorded: the same as when coelenterazine or coelenterazine h was used”, the “emission values (rank order)” value ([2]; coelenterazine 0.5 μM) was “NanoLuc®>>picALuc30>TurboLuc™>ALuc30 wt>GLuc” and the “emission values (rank order)” value ([2]; coelenterazine 5 μM) was “ALuc30 wt=picALuc30>NanoLuc®>TurboLuc™>GLuc”. For the same molecule, the “emission value (known)” value [4] was “very high”, the “emission values (rank order)” value ([5]; coelenterazine h 5 μM) was “TurboLuc™=ALuc30 wt>>NanoLuc®>picALuc30>GLuc” and the “emission values (rank order)” value ([5]; coelenterazine h 25 μM) was “picALuc30>>NanoLuc®=TurboLuc™=ALuc30 wt>>GLuc”.

B8: ALuc30 wt: artificial luciferase; positions 20 to 212 of ALuc30 (SEQ ID NO: 28) without a signal sequence; about 21 kDa (protein)
chain: HHHHHHHHDIVGVEGKFGTTDLETDLFTIVEDMNVISRDTDVDANRADRGRRGKLPGKKLPLEVLKELEANAQKAGCTRGCLICLSHIKCTAKMKKWLPGRCESWEGDKETGQGGIGEAIVDIPEIPGFKELAPMEQFIAQVDLCADCTTGCLKGLANVKCSALLKKWLPSRCAGFADKIQAQVDTIKGAGGS
modifications: ALuc30
notes: artificial luciferase; about 21 kDa
In the case of B8, the emission value [3] is reported as “low as compared to NanoLuc® and TurboLuc™”, the maximum emission value ([6]; Experiment 7) is reported as “same maximum emission value as NanoLuc®” and the specific activity ([6]; coelenterazine or coelenterazine h as substrate) is reported as “the same as the specific activity of picALuc”. For the same molecule, the “stability of protein termini (Flag-tag and His-tag detection)” value [7] was “both termini remaining”, the “emission values (rank order)” value ([2]; coelenterazine 0.5 μM) was “NanoLuc®>>picALuc30>TurboLuc™>ALuc30 wt>GLuc” and the “emission values (rank order)” value ([2]; coelenterazine 5 μM) was “ALuc30 wt=picALuc30>NanoLuc®>TurboLuc™>GLuc”. The “emission values (rank order)” value ([5]; coelenterazine h 5 μM) was “TurboLuc™=ALuc30 wt>>NanoLuc®>picALuc30>GLuc” and the “emission values (rank order)” value ([5]; coelenterazine h 25 μM) was “picALuc30>>NanoLuc®=TurboLuc™=ALuc30 wt>>GLuc”.

B9: position 4 to 64 and position 65 to 120: combination of polypeptides of these positions of SEQ ID NO: 51 (SEQ ID NOs: 79 and 83) (protein)
chain 1: GKKLPLEVLKELEANAQKAGCTRGCLICLSHIKCTAKMKKWLPGRCESWEGDKETGQGGIG
chain 2: EAIVDIPEIPGFKELAPMEQFIAQVDLCADCTTGCLKGLANVKCSALLKKWLPSRC
modifications: part of picALuc30
In the case of B9, the emission value [1] is reported as “high emission value”.

B10: position 4 to 64 and position 73 to 120: combination of polypeptides of these positions of SEQ ID NO: 51 (SEQ ID NOs: 79 and 84) (protein)
chain 1: B9 chain 1
chain 2: B3 chain 2
modifications: part of picALuc30
For B10, the emission value [1] was “high emission value”.

B11: picALuc48: SEQ ID NO: 53; ALuc48 with deletion of N terminus and C terminus, corresponding to picALuc30 (protein)
chain: HGGLPGKKMPLEVLLELEANAQRAGCTRGCLICLSKIKCTAKMKKWLPGRCESWAGDKETGQGGITEEETVDIPEIPGFKDLEPMEQFIAQVDLCVDCTTGCLKGLANVKCSDLLKKWLPSRCAT
modifications: picALuc48
notes: ALuc48 with deletion of N terminus and C terminus, corresponding to picALuc30
For B11, the emission value [2, 8] was “sufficiently high”.
